Assay results published in the supplement of paper PMC10567573.

B1: ANKRD9 (parent)
chain: LLEDMRASEAFHWDERGRAAAYSP

Variants of: B1
Test: protein stability index of a GFP-peptide fusion (GPS, HEK-293T) (PSI 1-6); higher = more stable
Settings: c terminus: a fixed tail appended
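Also: lentivirally expressed fusions sorted by FACS into six bins by GFP to DsRed ratio, PSI derived from sequencing read proportions per bin multiplied by bin number.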

| Variant | protein stability index |
| --- | --- |
| D14V | 1.35 |
| D14K | 1.41 |
| D14N | 2.11 |
| D14H | 2.13 |
| D14Y | 1.98 |
| D14L | 2.09 |
| D14Q | 1.58 |
| D14I | 1.77 |
| D14T | 2.57 |
| D14R | 2.29 |
| D14W | 2.41 |
| D14F | 1.36 |
| D14P | 1.6 |
| D14M | 2.33 |
| W13I | 1.87 |
| W13G | 2.61 |
| W13P | 2.74 |
| W13V | 2.05 |
| W13E | 2.06 |
| W13H | 2.66 |
| W13F | 2.05 |
| W13Y | 1.39 |
| W13M | 1.84 |
| W13R | 2.94 |

| Variant | protein stability index |
| --- | --- |
| W13A | 2.16 |
| W13C | 2.53 |
| W13N | 2.2 |
| W13K | 2.93 |
| W13L | 2.41 |
| W13D | 2.24 |
| M5T | 4.12 |
| M5G | 3.94 |
| M5S | 3.3 |
| M5F | 3.94 |
| M5N | 4.1 |
| M5W | 3.64 |
| M5Q | 3.91 |
| M5V | 3.77 |
| M5L | 1.6 |
| M5E | 4.66 |
| M5Y | 3.83 |
| M5P | 4.09 |
| M5I | 2.89 |
| M5H | 3.39 |
| M5A | 3.92 |
| M5K | 3.97 |
| E3L | 3.26 |
| E3H | 2.19 |

| Variant | protein stability index |
| --- | --- |
| E3D | 1.92 |
| E3S | 1.43 |
| E3A | 2.72 |
| E3P | 4.09 |
| E3Q | 2.38 |
| E3F | 2.08 |
| E3M | 1.15 |
| E3Y | 1.55 |
| E3R | 3.42 |
| E3N | 1.32 |
| E3K | 2.49 |
| E3I | 1.85 |
| E3T | 2.31 |
| E3C | 1.51 |
| E15Q | 1.94 |
| E15R | 1.58 |
| E15I | 2.83 |
| E15M | 1.32 |
| E15T | 1.91 |
| E15C | 2.68 |
| E15D | 1.56 |
| E15V | 1.52 |
| E15F | 2.95 |
| E15L | 1.5 |

| Variant | protein stability index |
| --- | --- |
| E15S | 1.64 |
| E15H | 2.68 |
| E15A | 1.31 |
| E15Y | 1.81 |
| E15K | 1.8 |
| E15G | 1.7 |
| E15P | 1.88 |
| A7K | 1.52 |
| A7T | 2.15 |
| A7Q | 1.8 |
| A7L | 2.19 |
| A7S | 1.78 |
| A7C | 1.8 |
| A7V | 2.35 |
| A7W | 2.3 |
| A7E | 1.27 |
| A7D | 2.51 |
| A7H | 3.62 |
| A7F | 2.64 |
| A7Y | 1.8 |
| A7I | 1.96 |
| A7P | 4.21 |
| A7M | 2.34 |
| A7R | 1.76 |

| Variant | protein stability index |
| --- | --- |
| A7G | 3.01 |
| E9P | 2.8 |
| E9Y | 2.48 |
| E9M | 2.46 |
| E9F | 2.32 |
| E9W | 1.32 |
| E9H | 3.31 |
| E9R | 2.77 |
| E9G | 2.06 |
| E9K | 3.29 |
| E9A | 3.12 |
| E9I | 1.79 |
| E9L | 1.89 |
| E9Q | 4.46 |
| E9T | 2.96 |
| E9V | 2.19 |
| E9S | 3 |
| E9D | 2.99 |
| A19V | 1.99 |
| A19Q | 1.22 |
| A19F | 1.54 |
| A19L | 2.39 |
| A19P | 2.31 |
| A19K | 2.27 |

| Variant | protein stability index |
| --- | --- |
| A19D | 1.36 |
| A19W | 1.53 |
| A19N | 1.84 |
| A19Y | 1.28 |
| A19C | 2.26 |
| A19H | 1.69 |
| A19S | 2.23 |
| A19R | 1.84 |
| A19I | 1.03 |
| A19T | 1.88 |
| A19E | 1.55 |
| G17E | 2.31 |
| G17F | 2.59 |
| G17K | 1.78 |
| G17H | 1.44 |
| G17N | 2.52 |
| G17C | 2.39 |
| G17R | 2.06 |
| G17W | 1.1 |
| G17T | 1.42 |
| G17V | 3.02 |
| H12D | 2.1 |
| H12G | 2.49 |
| H12T | 2.21 |

| Variant | protein stability index |
| --- | --- |
| H12R | 2.2 |
| H12E | 1.83 |
| H12V | 1.34 |
| H12F | 2.29 |
| H12C | 3.35 |
| H12M | 1.68 |
| H12K | 2.5 |
| H12P | 1.95 |
| H12I | 2.61 |
| H12L | 2.68 |
| H12A | 3.33 |
| R18H | 2.66 |
| R18Y | 1.71 |
| R18Q | 1 |
| R18C | 1.69 |
| R18P | 1.56 |
| R18M | 2.34 |
| R18S | 1.88 |
| R18V | 2.36 |
| R18K | 1.8 |
| R18L | 2.24 |
| R18G | 2.12 |
| R18E | 1.96 |
| R18N | 2.14 |

| Variant | protein stability index |
| --- | --- |
| R18A | 2.65 |
| R18F | 2.22 |
| R18T | 1.7 |
| R18I | 1.65 |
| R18D | 1.91 |
| Y22A | 3.01 |
| Y22C | 1.8 |
| D4A | 2.36 |
| D4W | 1.52 |
| D4P | 3.91 |
| D4G | 2.52 |
| D4I | 2 |
| D4K | 2.37 |
| D4V | 2.19 |
| D4Y | 1.9 |
| D4M | 1.44 |
| D4N | 2.5 |
| D4F | 2 |
| D4E | 2.03 |
| D4L | 1.64 |
| D4S | 2.23 |
| D4T | 2.62 |
| D4C | 2.44 |
| D4Q | 2.14 |

| Variant | protein stability index |
| --- | --- |
| D4H | 2.69 |
| A20Q | 1.48 |
| A20P | 1.92 |
| A20T | 2.36 |
| A20D | 2.64 |
| A20I | 1.97 |
| A20F | 1.81 |
| A20M | 2.55 |
| A20H | 2.13 |
| A20S | 1.62 |
| A20K | 1.62 |
| A20V | 1.34 |
| A20R | 1.1 |
| A20C | 1.46 |
| A20E | 1.92 |
| A20Y | 1.85 |
| A20L | 2.27 |
| A10C | 1.39 |
| A10T | 2.44 |
| A10S | 1.85 |
| A10L | 2.82 |
| A10F | 2.1 |
| A10V | 1.5 |
| A10H | 2.7 |

| Variant | protein stability index |
| --- | --- |
| A10W | 1.94 |
| A10G | 2.46 |
| A10E | 1.81 |
| A10R | 1.86 |
| A10K | 1.97 |
| A10D | 1.23 |
| A10P | 3.58 |
| A10M | 1.94 |
| A10N | 1.54 |
| L1Y | 3.54 |
| L1T | 4.04 |
| L1W | 3.01 |
| L1V | 2.91 |
| R6L | 1.1 |
| R6F | 2.79 |
| R6E | 3.96 |
| R6A | 3.56 |
| R6V | 2.43 |
| R6H | 2.95 |
| R6T | 2.5 |
| R6Y | 2.43 |
| R6K | 2.85 |
| R6D | 4.03 |
| R6I | 2.32 |

| Variant | protein stability index |
| --- | --- |
| R6W | 1.87 |
| R6C | 3.6 |
| R6S | 2.9 |
| R6P | 3.27 |
| R6M | 2.17 |
| R6N | 2.97 |
| L2H | 4.13 |
| L2E | 4.52 |
| L2I | 4.67 |
| L2R | 3.27 |
| L2Q | 3.66 |
| L2A | 3.15 |
| L2V | 3.17 |
| L2D | 3.98 |
| L2S | 3.94 |
| L2P | 4.37 |
| L2M | 2.67 |
| L2W | 1.9 |
| L2F | 2.53 |
| L2K | 3.25 |
| L2C | 4.06 |
| L2N | 3.3 |
| L2Y | 1.71 |
| L2T | 3.88 |

| Variant | protein stability index |
| --- | --- |
| L2G | 3.74 |
| S8L | 2.73 |
| S8C | 2.5 |
| S8D | 3.89 |
| S8F | 3.31 |
| S8G | 2.19 |
| S8P | 3.3 |
| S8Y | 2.7 |
| S8T | 1.82 |
| S8V | 2.82 |
| S8I | 1.95 |
| S8A | 3.3 |
| S8Q | 3.91 |
| S8M | 3.04 |
| S8W | 3.13 |
| S8K | 3.96 |
| S8H | 3.13 |
| S8R | 2.88 |
| S8N | 4.13 |
| R16L | 2.41 |
| R16E | 1.93 |
| R16T | 1.74 |
| R16S | 1.44 |
| R16Q | 1.9 |

| Variant | protein stability index |
| --- | --- |
| R16M | 1.32 |
| R16C | 1.56 |
| R16A | 2.24 |
| R16G | 1.88 |
| R16H | 2.44 |
| R16N | 1.93 |
| R16F | 1.86 |
| R16V | 1.79 |
| R16W | 1.58 |
| R16I | 3.12 |
| R16K | 1.32 |
| F11E | 1.74 |
| F11N | 2.84 |
| F11M | 2.28 |
| F11D | 3.58 |
| F11Y | 2.03 |
| F11G | 3.23 |
| F11Q | 2.32 |
| F11R | 2.87 |
| F11A | 2.71 |
| F11T | 2.5 |
| F11H | 2.66 |
| F11L | 1.98 |
| F11K | 3.72 |

| Variant | protein stability index |
| --- | --- |
| F11I | 1.78 |
| F11P | 2.5 |
| F11S | 2.91 |
| A21E | 2.53 |
| A21D | 2.06 |
| A21I | 1.71 |
| A21K | 1.95 |
| A21W | 1.42 |
| A21V | 3.25 |
| A21T | 1.43 |
| A21L | 1.87 |
| A21Q | 2.29 |
| A21F | 2.55 |
| A21R | 2.23 |
| A21P | 1.86 |
| A21Y | 2.08 |
| A21M | 1.96 |
| A21N | 2.15 |
| A21H | 1.45 |
| A21S | 1.62 |
| A21G | 1.33 |
| A21C | 2.15 |
